The results in this text go back to US20160244525A1 (Genentech, published 2016).

The target in experiment [1] is T1, FGFR3-IIIc (human, UniProt P22607 23-375, limits assumed).
T1 construct: also called human FGFR3-IIIc
T1 sequence: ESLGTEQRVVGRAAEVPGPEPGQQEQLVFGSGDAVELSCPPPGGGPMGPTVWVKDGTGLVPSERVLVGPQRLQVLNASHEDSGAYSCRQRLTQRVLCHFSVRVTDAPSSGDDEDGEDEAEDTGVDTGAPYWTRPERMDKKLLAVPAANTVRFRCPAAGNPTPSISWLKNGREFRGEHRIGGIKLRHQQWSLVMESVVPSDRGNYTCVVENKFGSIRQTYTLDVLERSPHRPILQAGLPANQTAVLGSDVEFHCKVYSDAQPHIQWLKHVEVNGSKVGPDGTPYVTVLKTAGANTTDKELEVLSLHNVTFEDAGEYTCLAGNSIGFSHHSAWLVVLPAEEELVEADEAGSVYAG
The experiment is described as follows: blocking ELISA: FGFR3-IIIc-Fc captured on an anti-human Fc plate, antibody titrated, FGF-1 (with heparin) is the blocked ligand, bound FGF-1 read as OD450.
Procedure: (§1) The plate was washed 5 times before being added with the antibody and FGF ligand mixtures, which was prepared as 49 μL 100 ng/mL FGF ligand, 1 μL 25 mg/mL Heparin (Sigma-Aldrich) and 50 μL antibody dilutions. After shaking at RT for 2 h, the plate was washed 5 times. Bound ligand was detected by subsequent incubations at RT with 0.5 μg/mL biotinylated anti-FGF antibodies (R&D Biosystems) for 0.5 h, 1:2,500-diluted Streptavidin-HRP (Invitrogen) for 0.5 h and the TMB substrate until enough color development.

In experiment [2] the target is T2, FGFR2-IIIc (human, UniProt P21802 22-377).
T2 construct: also called human FGFR2-IIIc; FGFR2-IIIc-His
The experiment can be described thus: blocking ELISA: FGFR2-IIIc-Fc captured on an anti-human Fc plate, antibody titrated, FGF-1 (with heparin) is the ligand, bound FGF-1 read as OD450. On the technique in general: In an ELISA, binding on a coated surface is turned into a signal by an enzyme label.
Procedure: as §1

The target in the next experiment is T3, FGFR4 (human, UniProt P22455 22-369, limits assumed).
T3 construct: also called human FGFR4; FGFR4-His
T3 sequence (looked up): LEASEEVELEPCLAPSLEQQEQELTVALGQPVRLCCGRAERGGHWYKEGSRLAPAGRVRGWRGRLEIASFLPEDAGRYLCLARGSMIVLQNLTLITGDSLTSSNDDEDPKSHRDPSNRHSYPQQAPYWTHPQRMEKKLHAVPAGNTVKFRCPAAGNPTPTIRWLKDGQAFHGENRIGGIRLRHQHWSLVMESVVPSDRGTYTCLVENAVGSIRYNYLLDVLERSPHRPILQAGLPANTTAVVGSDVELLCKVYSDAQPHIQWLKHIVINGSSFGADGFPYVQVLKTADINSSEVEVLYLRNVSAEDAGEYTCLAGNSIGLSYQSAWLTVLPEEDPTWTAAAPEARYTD
The experiment is described as follows: blocking ELISA: FGFR4-Fc captured on an anti-human Fc plate, antibody titrated, FGF-19 (with heparin) is the ligand, bound FGF-19 read as OD450.

In experiment [3] the target is T1, FGFR3-IIIc. The experiment can be described thus: SPR. (In general: Surface plasmon resonance follows binding to a sensor surface in real time, without labels.)
Procedure: (§2) A saturated amount of anti-human Fc monoclonal antibody was immobilized onto a CM5 biosensor chip by following the product instructions. […] FGFR antigens of various concentrations were injected at a flow rate 30 μL/min. After each binding cycle, flow cells were regenerated using 3M MgCl₂. Kinetic analyses were performed using the T100 evaluation software to obtain the kinetic and affinity constants.
(§3) 1.3 variants were determined by capturing FGFR4-Fc and flowing the antibody Fab fragments (Table 12).
For a further experiment, the target named is T4, FGFR1-IIIb (human, UniProt P11362-19 22-376, limits assumed).
T4 construct: Soluble FGFR antigen in SPR
T4 sequence (looked up): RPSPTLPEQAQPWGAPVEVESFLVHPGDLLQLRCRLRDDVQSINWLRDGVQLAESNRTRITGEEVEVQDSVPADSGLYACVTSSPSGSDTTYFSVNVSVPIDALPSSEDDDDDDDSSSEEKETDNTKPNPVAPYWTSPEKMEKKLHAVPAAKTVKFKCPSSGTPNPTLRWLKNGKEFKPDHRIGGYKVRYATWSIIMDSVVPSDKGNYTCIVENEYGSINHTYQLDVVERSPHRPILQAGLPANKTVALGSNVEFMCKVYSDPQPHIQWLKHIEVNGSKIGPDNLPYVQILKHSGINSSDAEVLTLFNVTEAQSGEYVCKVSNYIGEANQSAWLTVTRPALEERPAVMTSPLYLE
The experiment can be described thus: SPR.

A further experiment has as its target T5, FGFR2-IIIb (D2D3) (human).
T5 construct: also called human FGFR2-IIIb ECD (residue 140-369)
T5 chain: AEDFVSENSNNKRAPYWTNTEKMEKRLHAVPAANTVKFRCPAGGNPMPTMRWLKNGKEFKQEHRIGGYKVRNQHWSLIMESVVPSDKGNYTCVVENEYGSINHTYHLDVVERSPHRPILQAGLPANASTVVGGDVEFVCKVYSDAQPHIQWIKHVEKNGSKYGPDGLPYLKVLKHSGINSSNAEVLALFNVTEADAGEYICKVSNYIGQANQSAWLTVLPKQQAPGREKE
The experiment can be described thus: SPR (Biacore).

The target in experiment [4] is T1, FGFR3-IIIc. The experiment is described as follows: SPR (Biacore T100), IgG captured by anti-human Fc, FGFR flowed.
Procedure: as §2
The next experiment concerns the target T6, FGFR4-Fc (human, UniProt P22455 22-369).
T6 sequence (looked up): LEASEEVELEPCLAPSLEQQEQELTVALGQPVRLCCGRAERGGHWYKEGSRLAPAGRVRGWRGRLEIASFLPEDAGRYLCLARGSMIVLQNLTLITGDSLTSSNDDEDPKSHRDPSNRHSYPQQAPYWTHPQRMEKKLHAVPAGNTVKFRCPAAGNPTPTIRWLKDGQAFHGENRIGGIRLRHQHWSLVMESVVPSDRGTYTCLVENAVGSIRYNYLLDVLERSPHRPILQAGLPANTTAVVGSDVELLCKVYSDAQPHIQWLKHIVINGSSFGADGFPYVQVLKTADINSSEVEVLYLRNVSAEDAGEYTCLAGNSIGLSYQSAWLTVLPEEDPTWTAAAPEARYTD
The experiment is described as follows: SPR, FGFR4-Fc captured, Fab flowed; FGFR4-Fc captured, Fab flowed.

The target in experiment [5] is T2, FGFR2-IIIc. The experiment is described as follows: blocking ELISA: FGFR2-IIIc-Fc captured on an anti-human Fc plate, antibody titrated, FGF-1 (with heparin) is the blocked ligand, bound FGF-1 read as OD450.
Procedure: as §1
The target in experiment [6] is T2, FGFR2-IIIc. The experiment can be described thus: SPR.
Procedure: as §2, §3
For experiment [7], the target named is T1, FGFR3-IIIc. The experiment is described as follows: surface plasmon resonance (Biacore).
For experiment [8], the target named is T2, FGFR2-IIIc. The experiment can be described thus: SPR (Biacore T100), IgG captured by anti-human Fc, FGFR flowed.
Procedure: as §2
A further experiment concerns the target T7, FGFR4-6xHis (human, UniProt P22455 22-369, limits assumed).
T7 sequence: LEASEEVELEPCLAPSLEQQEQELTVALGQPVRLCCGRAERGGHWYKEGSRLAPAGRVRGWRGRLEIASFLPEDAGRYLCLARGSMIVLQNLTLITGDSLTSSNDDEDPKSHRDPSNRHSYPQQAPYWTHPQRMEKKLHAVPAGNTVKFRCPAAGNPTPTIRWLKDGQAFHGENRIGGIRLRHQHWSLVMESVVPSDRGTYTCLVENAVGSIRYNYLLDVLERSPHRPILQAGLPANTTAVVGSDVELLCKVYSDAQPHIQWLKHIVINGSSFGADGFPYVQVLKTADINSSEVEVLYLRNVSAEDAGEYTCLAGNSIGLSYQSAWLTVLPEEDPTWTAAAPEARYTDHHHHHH
The experiment is described as follows: SPR, IgG captured, FGFR4-6xHis flowed.

T2 sequence (P21802 22-377 limits assumed): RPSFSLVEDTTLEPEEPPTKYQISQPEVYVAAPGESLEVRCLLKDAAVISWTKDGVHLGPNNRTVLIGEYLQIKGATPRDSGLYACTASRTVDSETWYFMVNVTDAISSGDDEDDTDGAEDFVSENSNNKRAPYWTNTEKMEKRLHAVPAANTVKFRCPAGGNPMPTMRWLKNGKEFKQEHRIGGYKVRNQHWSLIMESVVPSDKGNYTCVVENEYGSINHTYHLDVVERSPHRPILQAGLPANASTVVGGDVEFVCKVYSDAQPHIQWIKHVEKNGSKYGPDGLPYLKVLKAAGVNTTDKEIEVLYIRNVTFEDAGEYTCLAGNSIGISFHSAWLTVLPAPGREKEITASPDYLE
Procedure for FGFR1-IIIb: as §2, §3
Procedure for FGFR4-6xHis: as §2, §3

B1: R3Mab (antibody, human IgG1, kappa, V domains shown)
VH: EVQLVESGGGLVQPGGSLRLSCAASGFTFTSTGISWVRQAPGKGLEWVGRIYPTNGSTNYADSVKGRFTISADTSKNTAYLQMNSLRAEDTAVYYCARTYGIYDLYVDYTEYVMDYWGQGTLVTVSS
VL: DIQMTQSPSSLSASVGDRVTITCRASQDVDTSLAWYKQKPGKAPKLLIYSASFLYSGVPSRFSGSGSGTDFTLTISSLQPEDFATYYCQQSTGHPQTFGQGTKVEIKR
notes: IgG in SPR; also called parental anti-FGFR3 antibody
On to B1, for which the “IC50 (read off the curve)” value with FGFR3-IIIc [1] is 2 to 3 nM. The binding result in the experiment with FGFR2-IIIc [2] is given as “no binding (tested: 128 nM)”; in the experiment with FGFR4 it was “no binding (tested: 500 nM)”; with FGFR1-IIIb, “no binding”; with FGFR2-IIIb (D2D3), “no binding (tested: 200 nM)”. For the same molecule, the Kd in the experiment with FGFR3-IIIc [3] and in the experiment with FGFR3-IIIc [4] was 0.61 nM each time.

B2: Fab fragment of Mab 2B.1.3 (Fab, V domains shown)
VH: EVQLVESGGGLVQPGGSLRLSCAASGFTFTSTGISWVRQAPGKGLEWVGRTHLGDGSTNYADSVKGRFTISADTSKNTAYLQMNSLRAEDTAVYYCARTYGIYDLYVDYTEYVMDYWGQGTLVTVSS
VL: DIQMTQSPSSLSASVGDRVTITCRASQDVDTSLAWYKQKPGKAPKLLIYSASFLYSGVPSRFSGSGSGTDFTLTISSLQPEDFATYYCQQSTGHPQTFGQGTKVEIKR
notes: Fab; also called 2B.1.3 Fab; Fab 2B.1.3
As for B2, in the experiment with FGFR4-Fc, binding was characterised by a dissociation constant (Kd) of 32 nM.

B3: 2B.1.3 (antibody, human IgG1, kappa, V domains shown)
VH: EVQLVESGGGLVQPGGSLRLSCAASGFTFTSTGISWVRQAPGKGLEWVGRTHLGDGSTNYADSVKGRFTISADTSKNTAYLQMNSLRAEDTAVYYCARTYGIYDLYVDYTEYVMDYWGQGTLVTVSS
VL: DIQMTQSPSSLSASVGDRVTITCRASQDVDTSLAWYKQKPGKAPKLLIYSASFLYSGVPSRFSGSGSGTDFTLTISSLQPEDFATYYCQQSTGHPQTFGQGTKVEIKR
notes: Full IgG1/kappa chains; also called Mab 2B.1.3
B3: the “IC50 (read off the curve)” value in the experiment with FGFR3-IIIc [1] is 2 to 3 nM; with FGFR2-IIIc [5], about 5 nM. Moreover, the Kd (in general, the free concentration of one partner at which half of the binding sites on the other are occupied at equilibrium, for simple one-to-one binding) with FGFR3-IIIc [3] stood at 0.07 nM; in the experiment with FGFR2-IIIc [6], 2 nM; with FGFR2-IIIb (D2D3) it was 0.71 nM; in the experiment with FGFR3-IIIc [7] it was 0.0834 nM; in the experiment with FGFR3-IIIc [4] it was 0.07 nM; with FGFR2-IIIc [8] it was 2 nM. For the same molecule, the binding result with FGFR1-IIIb was “no binding”.

B4: 2B.1.1 (antibody, human IgG1, kappa, V domains shown)
VH: EVQLVESGGGLVQPGGSLRLSCAASGFTFTSTGISWVRQAPGKGLEWVGRYWAWDGSTNYADSVKGRFTISADTSKNTAYLQMNSLRAEDTAVYYCARTYGIYDLYVDYTEYVMDYWGQGTLVTVSS
VL: DIQMTQSPSSLSASVGDRVTITCRASQDVDTSLAWYKQKPGKAPKLLIYSASFLYSGVPSRFSGSGSGTDFTLTISSLQPEDFATYYCQQSTGHPQTFGQGTKVEIKR
notes: Full IgG1/kappa chains
Turning to B4, the Kd with FGFR4-6xHis was found to be 2.8 nM; in the experiment with FGFR2-IIIc [6], 2.8 nM; with FGFR3-IIIc [7] it was 0.0663 nM. In the experiment with FGFR1-IIIb, the binding result is on record as “no binding”.
